Assay results as given in publication PMC11286949, “Structural basis of tRNA recognition by the widespread OB fold”.

Tests used:
Arc1p dN [1] = target: T1, Arc1p dN (Saccharomyces cerevisiae, UniProt P46672 132-376, del1-131); experiment: competition FP; FP: 25 mM Tris-HCl pH 7.5, 2 mM MgCl2, 50 mM NaCl (Trbp111) or 150 mM NaCl (Arc1p), room temperature; ITC: 25 mM Tris-HCl pH 7.4, 150 mM NaCl, 2 mM MgCl2, 25 C; conditions: protein: recombinant; tags: His-MBP removed; hairpin
T1 sequence: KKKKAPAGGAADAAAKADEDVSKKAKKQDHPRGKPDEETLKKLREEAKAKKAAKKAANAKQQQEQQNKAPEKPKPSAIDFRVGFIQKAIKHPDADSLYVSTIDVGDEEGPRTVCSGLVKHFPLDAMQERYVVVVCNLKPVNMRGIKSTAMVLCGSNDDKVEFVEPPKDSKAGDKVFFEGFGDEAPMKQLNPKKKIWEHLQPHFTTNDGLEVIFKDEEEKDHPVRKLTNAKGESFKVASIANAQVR

Trbp111 [2] = target: T2, Trbp111 (Aquifex aeolicus, UniProt O66738 1-111); experiment: competition fluorescence polarization; ITC (Arc1p): 25 mM Tris-HCl pH 7.4, 150 mM NaCl, 2 mM MgCl2, 25 °C. FP and competition FP: 25 mM Tris-HCl pH 7.5, 150 mM NaCl (Arc1p) or 50 mM NaCl (Trbp111), 2 mM MgCl2, room temperature; conditions: protein: recombinant; tags: His-MBP removed (PreScission); chain copies: 2; hairpin
Arc1p dN [3] = target: T1, Arc1p dN; experiment: as above; conditions: protein: recombinant; tags: His-MBP removed; hairpin
Trbp111 [4] = target: T2, Trbp111; experiment: competition FP; vs fluorescein-tRNATyr; FP: 25 mM Tris-HCl pH 7.5, 2 mM MgCl2, 50 mM NaCl (Trbp111) or 150 mM NaCl (Arc1p), room temperature; ITC: 25 mM Tris-HCl pH 7.4, 150 mM NaCl, 2 mM MgCl2, 25 C; conditions: protein: recombinant; tags: His-MBP removed (PreScission); chain copies: 2; hairpin
Arc1p dN [5] = target: T1, Arc1p dN; experiment: 2AP fluorescence lifetime; 20 uM protein: 5.46 to 6.26 ns; FP: 25 mM Tris-HCl pH 7.5, 2 mM MgCl2, 50 mM NaCl (Trbp111) or 150 mM NaCl (Arc1p), room temperature; ITC: 25 mM Tris-HCl pH 7.4, 150 mM NaCl, 2 mM MgCl2, 25 C; conditions: protein: recombinant; tags: His-MBP removed; label: 2AP; hairpin
Arc1p dN [6] = target: T1, Arc1p dN; experiment: 2AP fluorescence lifetime; 20 uM protein: 4.76 to 6.2 ns; FP: 25 mM Tris-HCl pH 7.5, 2 mM MgCl2, 50 mM NaCl (Trbp111) or 150 mM NaCl (Arc1p), room temperature; ITC: 25 mM Tris-HCl pH 7.4, 150 mM NaCl, 2 mM MgCl2, 25 C; conditions: protein: recombinant; tags: His-MBP removed; label: 2AP; hairpin
Trbp111 [7] = target: T2, Trbp111; experiment: 2AP fluorescence lifetime; 60 uM protein: 4.73 to 5.76 ns; FP: 25 mM Tris-HCl pH 7.5, 2 mM MgCl2, 50 mM NaCl (Trbp111) or 150 mM NaCl (Arc1p), room temperature; ITC: 25 mM Tris-HCl pH 7.4, 150 mM NaCl, 2 mM MgCl2, 25 C; conditions: protein: recombinant; tags: His-MBP removed (PreScission); chain copies: 2; label: 2AP; hairpin
Arc1p dN [8] = target: T1, Arc1p dN; experiment: competition FP; FP: 25 mM Tris-HCl pH 7.5, 2 mM MgCl2, 50 mM NaCl (Trbp111) or 150 mM NaCl (Arc1p), room temperature; ITC: 25 mM Tris-HCl pH 7.4, 150 mM NaCl, 2 mM MgCl2, 25 C; conditions: protein: recombinant; tags: His-MBP removed; hairpin; remark: listed apart in the source
Trbp111 [9] = target: T2, Trbp111; experiment: as above; conditions: protein: recombinant; tags: His-MBP removed (PreScission); chain copies: 2; hairpin

T2 sequence (O66738 entry or part of it): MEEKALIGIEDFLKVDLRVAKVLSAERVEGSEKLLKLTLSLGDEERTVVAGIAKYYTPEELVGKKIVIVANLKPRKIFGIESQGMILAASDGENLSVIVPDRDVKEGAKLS

AGGCUUGGGUGGUUCAAGUCCACUCAGGCCUACCA (structured_RNA) [MiniH]
binding signal (Arc1p dN [1]): ~10 fold weaker than tRNA
IC50 (Trbp111 [2]): 5.96 ± 1.02 µM
IC50 (Arc1p dN [3]): 3.69 ± 0.931 µM
IC50 (Trbp111 [4]): 6.5 ± 1 µM

AGGCUUGGGUGGUUCAAGUCCACUCAGGCCUACCA (structured_RNA, 2-aminopurine at position 76) [MiniH-ACC-2AP]
binding result (Arc1p dN [5]): binds

AGGCUUGGGUGGUUCAAGUCCACUCAGGCCUACAA (structured_RNA, 2-aminopurine at position 75) [MiniH-AC-2AP-A]
binding result (Arc1p dN [6]): binds
binding result (Trbp111 [7]): binds

AGGCUUGGGUGGUUCAAGUCCACUCAGGCCUACCG (structured_RNA) [MiniH-ACCG]
IC50 (Arc1p dN [3]): 7.58 ± 2.9 µM
binding signal (Arc1p dN [8]): ~2 fold weaker than MiniH

AGGCUUGGGUGGUUCAAGUCCACUCAGGCCUACCU (structured_RNA) [MiniH-ACCU]
IC50 (Arc1p dN [3]): 11.8 ± 2.67 µM
binding signal (Arc1p dN [8]): ~3 fold weaker than MiniH

AGGCUUGGGUGGUUCAAGUCCACUCAGGCCUACCC (structured_RNA) [MiniH-ACCC]
IC50 (Arc1p dN [3]): 13.2 ± 4.95 µM
binding signal (Arc1p dN [8]): ~3 fold weaker than MiniH

AGGCUUUUCAAGUAGGCCUACCA (structured_RNA) [MicroH]
binding signal (Arc1p dN [1]): ~10 fold weaker than tRNA
IC50 (Trbp111 [2]): 7.32 ± 0.991 µM
IC50 (Arc1p dN [3]): 4.66 ± 0.769 µM
IC50 (Trbp111 [4]): 7.2 ± 1 µM

AGGCUUGGGUGGUUCAAGUCCACUCAGGCCUCA (structured_RNA) [MiniH dA73/dC74]
IC50 (Trbp111 [2]): 2.17 ± 0.151 µM
IC50 (Arc1p dN [3]): 2.78 ± 0.339 µM
binding signal (Trbp111 [9]): ~3 fold higher affinity than MiniH
